Values quoted from earlier work as cited in paper PMC3238542.
pKi: −log10 of the molar value. Where two headings read alike, the source gives them in different places.

Key:
pyruvate carboxylase [1] = molecular target: pyruvate carboxylase (UniProt P11498)
pyruvate carboxylase [2] = molecular target: pyruvate carboxylase (UniProt P11498); test: enzyme inhibition

UniProt P11498, sequence (P11498 21-1178): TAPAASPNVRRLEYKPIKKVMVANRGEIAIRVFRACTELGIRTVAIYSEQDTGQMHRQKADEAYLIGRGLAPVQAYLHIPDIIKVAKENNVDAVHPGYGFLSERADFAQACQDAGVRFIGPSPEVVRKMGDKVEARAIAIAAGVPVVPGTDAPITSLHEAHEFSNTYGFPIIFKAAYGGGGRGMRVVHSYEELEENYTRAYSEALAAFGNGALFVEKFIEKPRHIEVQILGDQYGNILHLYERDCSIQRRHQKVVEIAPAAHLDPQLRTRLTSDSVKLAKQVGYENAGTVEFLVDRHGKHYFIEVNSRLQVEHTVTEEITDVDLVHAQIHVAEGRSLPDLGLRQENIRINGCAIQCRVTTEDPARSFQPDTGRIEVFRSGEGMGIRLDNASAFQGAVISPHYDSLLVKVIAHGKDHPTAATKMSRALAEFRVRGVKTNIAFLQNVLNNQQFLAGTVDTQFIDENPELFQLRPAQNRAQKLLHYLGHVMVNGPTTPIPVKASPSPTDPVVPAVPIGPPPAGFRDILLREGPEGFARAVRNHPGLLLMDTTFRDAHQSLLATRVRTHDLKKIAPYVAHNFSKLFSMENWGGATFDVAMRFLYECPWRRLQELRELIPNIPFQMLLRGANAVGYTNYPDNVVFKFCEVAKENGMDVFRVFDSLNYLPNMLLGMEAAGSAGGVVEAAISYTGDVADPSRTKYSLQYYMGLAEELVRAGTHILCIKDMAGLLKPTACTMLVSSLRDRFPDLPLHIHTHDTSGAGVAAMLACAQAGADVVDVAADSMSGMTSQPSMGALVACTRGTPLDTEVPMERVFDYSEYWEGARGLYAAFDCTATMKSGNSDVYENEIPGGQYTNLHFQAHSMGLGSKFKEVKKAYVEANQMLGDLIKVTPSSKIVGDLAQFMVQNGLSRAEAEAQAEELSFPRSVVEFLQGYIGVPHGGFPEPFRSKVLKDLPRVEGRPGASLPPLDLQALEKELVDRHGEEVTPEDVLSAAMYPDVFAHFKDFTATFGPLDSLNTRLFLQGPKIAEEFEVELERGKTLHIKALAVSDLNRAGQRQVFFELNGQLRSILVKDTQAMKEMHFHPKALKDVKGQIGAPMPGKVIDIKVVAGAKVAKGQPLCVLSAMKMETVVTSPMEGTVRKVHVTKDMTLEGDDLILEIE

For prohibitin (Phb1) (from UniProt P35232), the pKi (pyruvate carboxylase [1]) is listed as 8.40 and the pKi (pyruvate carboxylase [2]) is listed as 8.30.
